From patent US20190375820A1 (ACCELERON PHARMA, published 2019)

T1: activin C (UniProt P55103 237-352)
T1 sequence (looked up): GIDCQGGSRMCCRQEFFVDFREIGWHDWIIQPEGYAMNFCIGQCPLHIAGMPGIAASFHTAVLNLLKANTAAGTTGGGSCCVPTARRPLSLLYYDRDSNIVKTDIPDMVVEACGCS

T2: activin AC (UniProt P08476 311-426; P55103 237-352)
T2 sequence (looked up) 1: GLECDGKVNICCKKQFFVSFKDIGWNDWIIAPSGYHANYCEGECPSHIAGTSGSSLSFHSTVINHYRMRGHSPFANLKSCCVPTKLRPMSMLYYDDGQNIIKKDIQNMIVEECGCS
T2 sequence (looked up) 2: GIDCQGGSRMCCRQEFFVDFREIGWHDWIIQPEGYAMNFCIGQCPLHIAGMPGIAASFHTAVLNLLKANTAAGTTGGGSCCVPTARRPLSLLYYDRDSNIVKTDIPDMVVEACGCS

B1: ActRIIB-Fc:ALK7-Fc heterodimer (Fc fusion)
chain 1: GRGEAETRECIYYNANWELERTNQSGLERCEGEQDKRLHCYASWRNSSGTIELVKKGCWLDDFNCYDRQECVATEENPQVYFCCCEGNFCNERFTHLPEAGGPEVTYEPPPTAPTGGGTHTCPPCPAPELLGGPSVFLFPPKPKDTLMISRTPEVTCVVVDVSHEDPEVKFNWYVDGVEVHNAKTKPREEQYNSTYRVVSVLTVLHQDWLNGKEYKCKVSNKALPAPIEKTISKAKGQPREPQVYTLPPSRKEMTKNQVSLTCLVKGFYPSDIAVEWESNGQPENNYKTTPPVLKSDGSFFLYSKLTVDKSRWQQGNVFSCSVMHEALHNHYTQKSLSLSPGK
chain 2: GLKCVCLLCDSSNFTCQTEGACWASVMLTNGKEQVIKSCVSLPELNAQVFCHSSNNVTKTECCFTDFCNNITLHLPTASPNAPKLGPMETGGGTHTCPPCPAPELLGGPSVFLFPPKPKDTLMISRTPEVTCVVVDVSHEDPEVKFNWYVDGVEVHNAKTKPREEQYNSTYRVVSVLTVLHQDWLNGKEYKCKVSNKALPAPIEKTISKAKGQPREPQVYTLPPSREEMTKNQVSLTCLVKGFYPSDIAVEWESNGQPENNYDTTPPVLDSDGSFFLYSDLTVDKSRWQQGNVFSCSVMHEALHNHYTQKSLSLSPG
notes: The receptor parts are the same in both pairs; only the Fc domains differ; also called ALK7-Fc:ActRIIB-Fc heterodimer; ActRIIB-Fc:ALK7-Fc heterodimeric complex
B2: ActRIIB-Fc homodimer (Fc fusion)
chain: SGRGEAETRECIYYNANWELERTNQSGLERCEGEQDKRLHCYASWRNSSGTIELVKKGCWLDDFNCYDRQECVATEENPQVYFCCCEGNFCNERFTHLPEAGGPEVTYEPPPTAPTLLT
notes: also called ActRIIB-Fc homodimeric complex; ActRIIB homodimer; not shown: linker and Fc domain
B3: ALK7-Fc homodimer (Fc fusion)
chain: LSPGLKCVCLLCDSSNFTCQTEGACWASVMLTNGKEQVIKSCVSLPELNAQVFCHSSNNVTKTECCFTDFCNNITLHLPTASPNAPKLGPME
notes: also called ALK7-Fc homodimeric complex; ALK7 homodimer; not shown: linker and Fc domain

Legend:
activin C = target: T1, activin C; test: SPR (Biacore); receptor-Fc captured via anti-Fc antibody, ligand injected
Method: (§1) Ligands were injected and allowed to flow over the captured receptor protein.

activin AC = target: T2, activin AC; test: as above
Method: as §1

Kd (activin C) | koff (activin C) | kon (activin C) | Kd (activin AC) | koff (activin AC) | kon (activin AC) | binding result (activin C) | Binder
6.9 nM | 0.0024 s⁻¹ | 350000 M⁻¹ s⁻¹ | 0.22 nM | 0.00057 s⁻¹ | 2.6e+06 M⁻¹ s⁻¹ | – | B1
– | – | – | 0.16 nM | 0.0031 s⁻¹ | 2e+07 M⁻¹ s⁻¹ | – | B2
– | – | – | – | – | – | no binding | B3
